Source: paper PMC12658140 (2025)

Columns and labels:
Assay in all cases: BLI
H3 stem with I32HA2 = H3 stem with I32HA2 (influenza A virus H3N2 …)
H3 stem with R32HA2 = H3 stem with R32HA2 (influenza A virus H3N2 …)
H3 stem with T32HA2 = H3 stem with T32HA2 (influenza A virus H3N2 …)

B1: 240-14 IgA 2F02 Fab (Fab, V domains shown)
VH: EVQLLESGGGLVQPGGSLRLSCAASGFTFSTYAMSWVRQAPGKGLEWVSTISGSGGSTYDAESVKGRFTISRDNSKNTLYLQMNSLRAEDTAVYYCAKEGGDFWSGYYANWFDPWGQGTLVTVSS
VL: QSALTQPRSVSGSPGQSVTISCTGTRSDVGGYNYVSWYQQHPGKAPKVIIYDVKKRPSGVPDRFSGSKSGNTASLTISGLQAEDEADYYCSAFAGSHTLFGGGTKVTVL
Q: Which Kd (H3 stem with I32HA2) does the source give for B1 here?
A: 22 nM

Q: And the Kd (H3 stem with R32HA2)?
A: 28 nM

Q: What about the Kd (H3 stem with T32HA2) of the same binder?
A: 17 nM
